Results on 4 molecules are retold here after patent US20090156421A1 (published 2009).

Like-named read-outs stand apart in the source and are kept apart here.

Assay [1] deals with IL-13Rα1 + IL-4R co-immobilised on one sensor chip surface (high affinity receptor) (human) (UniProt P78552). Put plainly: SPR, IL-13Rα1 and IL-4R co-immobilised, against IL-13Rα1 alone.
Assay [2] has as its target IL-13Rα1 monomer (IL-13Rα1 extracellular domain) (human) (UniProt P78552). Put plainly: SPR, IL-13Rα1 immobilised. (In general: SPR reads the build-up and loss of mass on a sensor chip optically.)
In assay [3] the target is IL-13Rα1 + IL-4R co-immobilised on one sensor chip surface (high affinity receptor) (human) (UniProt P78552). Put plainly: SPR, IL-13Rα1 and IL-4R co-immobilised, heterogeneous ligand model, component 2 (high affinity).
Assay [4] deals with Cy5-IL-13Rα1 plus IL-4R (500 nM) in solution (human) (UniProt P78552). Put plainly: TR-FRET assay 1, competition with Eu-IL-13, with 500 nM IL-4R, Kd calculated from IC50.
The target in assay [5] is IL-13Rα1 + IL-4R co-immobilised on one sensor chip surface (high affinity receptor) (human) (UniProt P78552). Put plainly: SPR, IL-13Rα1 and IL-4R co-immobilised, heterogeneous ligand model, component 1 (lower affinity).
In assay [6] the target is IL-13Rα1 monomer (IL-13Rα1 extracellular domain) (human) (UniProt P78552). Put plainly: SPR, IL-13Rα1 immobilised, 1:1 model.
Assay [7] addresses Cy5-IL-13Rα1 plus IL-4R (500 nM) in solution (human) (UniProt P78552). Put plainly: TR-FRET assay 1, competition with 10 nM Eu-IL-13, 10 nM Cy5-IL-13Rα1, 500 nM IL-4R.
For assay [8], the target named is Cy5-IL-13Rα1 (Cy5 labeled IL-13Rα1) (human) (UniProt P78552). Description: TR-FRET assay 1, competition with Eu-IL-13 for Cy5-IL-13Rα1, Kd calculated from IC50.
Assay [9] deals with IL-13Rα1 + IL-4R co-immobilised on one sensor chip surface (high affinity receptor) (human) (UniProt P78552). Description: SPR, IL-13Rα1 and IL-4R co-immobilised, heterogeneous ligand model, component 2 (high affinity); column head misprinted 'Kd 2 × 10^6'.
Assay [10] concerns the target Cy5-IL-13Rα1 (Cy5 labeled IL-13Rα1) (human) (UniProt P78552). Put plainly: TR-FRET assay 1, competition with 10 nM Eu-IL-13 for 10 nM Cy5-IL-13Rα1. (In general: TR-FRET usually uses a lanthanide donor and a delayed reading to cut background.)
The target in assay [11] is IL-13R110Q/IL-13Rα1 binary complex (human) (UniProt P35225). Description: SPR, IL-13Rα1 immobilised, 8 nM IL-13R110Q in buffer, IL-4R injected, 1:1 model.
The target is the same in assay [12]. Described as above. This is another data set of the same source.
Assay [13] addresses T1, Eu-IL-13 (europium chelate labeled IL-13) (human, UniProt P35225 35-146, limits assumed, europium chelate (Eu) label, directly labeled; site not stated).
T1 construct: also called Eu-labeled IL-13
Put plainly: TR-FRET assay 1, direct: Cy5-IL-13Rα1 titrated into 10 nM Eu-IL-13, no IL-4R. Here is the method: (§1) All TR-FRET experiments were performed on a 384-well black plate (Corning Costar, Acton, Mass.) in 20 μL final volume of PBS plus 0.1% BSA. For example, excitation and emission conditions for TR-FRET assay 1 and 2 were 345 nm and 665 nm, respectively. All TR-FRET measurements were taken using an Envision plate reader (Perkin Elmer) using the TR-FRET mode.
Binding between IL-13 and IL-13Rα¹ was analyzed using Eu-IL-13 (Eu=Europium chelate, FRET donor) and Cy5-IL-13Rα1 (Cy5=Cyanine dye, FRET acceptor) (schematic shown in FIG. 3) described in Example 5. Affinity measurements were performed by adding various concentrations of Cy5-IL-13Rα1 in the presence of 10 nM Eu-IL-13 with and without 500 nM IL-4R.

Assay [14] has as its target T1, Eu-IL-13 (europium chelate labeled …). Put plainly: TR-FRET assay 1, competition with 10 nM Cy5-IL-13Rα1 for 10 nM Eu-IL-13, no IL-4R. As to the method:
as §1
(§2) Assays were performed as described in Example 5. Competition experiments were performed by adding various concentrations of unlabeled IL-13, IL-13R110Q, or IL-13Rα1 to the Eu-IL-13 (10 nM)/Cy5-IL-13Rα1 (10 nM) binary complex with or without IL-4R (500 nM).
(§3) To confirm the dissociation constant of Cy5-IL-13Rα1, a competition experiment was performed using unlabeled IL-13Rα1.

Assay [15] addresses T2, Eu-IL-13 plus IL-4R (500 nM) in solution (human, UniProt P35225 35-146; P24394 26-232, limits assumed, europium chelate label; site not stated).
T2 construct: The partners of IL-13Rα1 in the ternary format of TR-FRET assay 1
Put plainly: TR-FRET assay 1, competition with 10 nM Cy5-IL-13Rα1 for 10 nM Eu-IL-13, with 500 nM IL-4R. Here is the method:
as §1, §2, §3

Sequence of IL-13Rα1 + IL-4R co-immobilised on one sensor chip surface (high affinity receptor) (human) (P24394 26-232): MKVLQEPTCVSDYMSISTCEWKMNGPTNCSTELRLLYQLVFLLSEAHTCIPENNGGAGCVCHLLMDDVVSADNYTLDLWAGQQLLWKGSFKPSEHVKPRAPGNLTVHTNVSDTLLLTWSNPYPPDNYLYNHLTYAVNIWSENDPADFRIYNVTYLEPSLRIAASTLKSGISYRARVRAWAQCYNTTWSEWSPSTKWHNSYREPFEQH
Sequence of IL-13R110Q/IL-13Rα1 binary complex (human) (P35225 35-146, one chain of several): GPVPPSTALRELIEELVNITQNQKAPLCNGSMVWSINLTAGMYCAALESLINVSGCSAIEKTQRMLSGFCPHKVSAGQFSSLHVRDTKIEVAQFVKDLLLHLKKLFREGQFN
Sequence of Cy5-IL-13Rα1 plus IL-4R (500 nM) in solution (human) (P24394 26-232): as the sequence (P24394 26-232) above
T1 sequence (P35225 other isoform, or with tags, fused parts or gaps limits assumed, form in doubt): as the sequence (P35225 35-146, one chain of several) above, with Q110R counted along it
T2 sequence (P35225 other isoform, or with tags, fused parts or gaps limits assumed, form in doubt, chain 1 of 2): as the sequence (P35225 35-146, one chain of several) above, with Q110R counted along it
T2 sequence (P24394 26-232 limits assumed, form in doubt, chain 2 of 2): as the sequence (P24394 26-232) above

As to “IL-13R110Q (from UniProt P35225 35-146) (ligand)”, in [1], the fold lower Kd than to IL-13Rα1 alone was 17 fold. Also, the t½ (decay of binding) in assay [2] was 50 s. The Kd (as a rule, the concentration at which binding is half-saturated) in assay [3] is 0.53 nM; in assay [4], 0.3 nM; in assay [5], 14.5 nM; in assay [6] it was 8.93 nM; in assay [8], 6.7 nM. In addition, the koff – broadly, a measure of how fast the partners let go of each other – in [3] was found to be 0.002 s⁻¹; in assay [5], 0.018 s⁻¹; in [6], 0.015 s⁻¹. In addition, the kon (in general, the rate constant with which the complex forms) in assay [5] is 1.24e+06 M⁻¹ s⁻¹; in [6] it was 1.68e+06 M⁻¹ s⁻¹; in [9], 3.77e+06 M⁻¹ s⁻¹. Further, the concentration for half-maximal inhibition (IC50) (usually the concentration that gives 50% inhibition) in assay [7] was determined as 12 nM; in assay [10] it was 27 nM.

On to “soluble form of carrier-free human IL-4Rα monomer (R&D Systems) (from UniProt P24394 26-232) (receptor)”, for which, in assay [11], the Kd worked out at 115 nM, the koff was 0.0051 s⁻¹ and the kon was determined as 44000 M⁻¹ s⁻¹. This molecule also displayed a koff in assay [12] of 0.005 s⁻¹.

B1: Cy5-IL-13Rα1 (Cy5 labeled IL-13Rα1) (receptor, human, UniProt P78552 22-343, looked up)
chain: GGGGAAPTETQPPVTNLSVSVENLCTVIWTWNPPEGASSNCSLWYFSHFGDKQDKKIAPETRRSIEVPLNERICLQVGSQCSTNESEKPSILVEKCISPPEGDPESAVTELQCIWHNLSYMKCSWLPGRNTSPDTNYTLYYWHRSLEKIHQCENIFREGQYFGCSFDLTKVKDSSFEQHSVQIMVKDNAGKIKPSFNIVPLTSRVKPDPPHIKNLSFHNDDLYVQWENPQNFISRCLFYEVEVNNSQTETHNVFYVQEAKCENPEFERNVENTSCFMVPGVLPDTLNTVRIRVKTNKLCYEDDKLWSNWSQEMSIGKKRNST
modifications: Cy5 label, directly labeled; site not stated
notes: extracellular domain; also called IL-13R-Cys5; Cy5-IL-13RI1
Consider B1, for which the EC50 (usually the concentration that produces a half-maximal response) in assay [13] came to 10 nM.

B2: IL-13Rα1 monomer (IL-13Rα1 extracellular domain) (receptor, human, UniProt P78552 22-343, looked up)
chain: B1 chain
notes: extracellular domain; Expressed and purified as in Yang et al. 2006; also called IL-13RI1; IL-13R1
In the case of B2, the IC50 turned out to be 20 nM in [14] and 11 nM in assay [15].
